The values below come from JP2018108089A (dated 2018).

The target in assay [1] is T1, human tissue factor pathway inhibitor (TFPI) (human, UniProt P10646 29-304, limits assumed).
T1 construct: Bought protein; also called human TFPI; hTFPI
T1 sequence (looked up): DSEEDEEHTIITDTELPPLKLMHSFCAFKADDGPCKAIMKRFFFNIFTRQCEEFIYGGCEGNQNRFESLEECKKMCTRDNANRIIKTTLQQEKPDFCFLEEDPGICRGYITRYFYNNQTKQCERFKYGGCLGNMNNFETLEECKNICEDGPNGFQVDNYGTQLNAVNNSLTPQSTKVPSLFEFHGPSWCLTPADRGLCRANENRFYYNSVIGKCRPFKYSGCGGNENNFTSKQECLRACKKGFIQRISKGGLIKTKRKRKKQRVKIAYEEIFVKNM
In words: ELISA, Fab from bacterial lysate on coated human TFPI.

In assay [2] the target is T2, mouse tissue factor pathway inhibitor (TFPI) (mouse, UniProt O54819 29-289, limits assumed).
T2 construct: Bought protein; also called mouse TFPI; mTFPI
T2 sequence (looked up): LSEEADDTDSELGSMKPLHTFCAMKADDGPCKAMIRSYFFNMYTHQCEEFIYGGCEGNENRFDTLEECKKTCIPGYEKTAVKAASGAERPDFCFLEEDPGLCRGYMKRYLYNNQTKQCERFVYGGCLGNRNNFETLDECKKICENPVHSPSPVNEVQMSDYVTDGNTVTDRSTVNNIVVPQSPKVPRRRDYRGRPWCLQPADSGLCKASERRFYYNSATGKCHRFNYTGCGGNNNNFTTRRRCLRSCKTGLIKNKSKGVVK
In words: ELISA on coated mouse TFPI.

The target of assay [3] is T1, human tissue factor pathway inhibitor …. As to the kind of experiment: ELISA on coated human TFPI.
In assay [4] the target is T2, mouse tissue factor pathway inhibitor …. As to the kind of experiment: ELISA on coated mouse TFPI, IgG against Fab.
In assay [5] the target is T1, human tissue factor pathway inhibitor …. As to the kind of experiment: ELISA on coated human TFPI, IgG against Fab.

B1: TP-4B7 (Fab, V domains shown)
VH: QVQLQQSGPGLVKPSQTLSLTCAISGDSVSSNSAAWSWIRQSPGRGLEWLGIIYKRSKWYNDYAVSVKSRITINPDTSKNQFSLQLNSVTPEDTAVYYCARWHSDKHWGFDYWGQGTLVTVSS
VL: DIVMTQSPLSLPVTPGEPASISCRSSQSLVFSDGNTYLNWYLQKPGQSPQLLIYKGSNRASGVPDRFSGSGSGTDFTLKISRVEAEDVGVYYCQQYDSYPLTFGQGTKVEIKR
notes: Human Fab (HuCAL Gold, E. coli TG1)
For the molecule B1, the binding result in assay [1] is “binds”.

B2: TP-2G6 (Fab, V domains shown)
VH: QVQLQQSGPGLVKPSQTLSLTCAISGDSVSSSSAAWSWIRQSPGRGLEWLGIIYYRSKWYNDYAVSVKSRITINPDTSKNQFSLQLNSVTPEDTAVYYCARHSMVGFDVWGQGTLVTVSS
VL: DIVLTQSPATLSLSPGERATLSCRASQYVTSSYLAWYQQKPGQAPRLLIYGSSRATGVPARFSGSGSGTDFTLTISSLEPEDFATYYCQQYSSSPITFGQGTKVEIKR
notes: Human Fab (HuCAL Gold, E. coli TG1); also called 2G6-Fab
For B2, the EC50 in assay [2] is 5.18 nM; in assay [3], 0.48 nM.

B3: 2G6-IgG (antibody, V domains shown)
VH: QVQLQQSGPGLVKPSQTLSLTCAISGDSVSSSSAAWSWIRQSPGRGLEWLGIIYYRSKWYNDYAVSVKSRITINPDTSKNQFSLQLNSVTPEDTAVYYCARHSMVGFDVWGQGTLVTVSS
VL: DIVLTQSPATLSLSPGERATLSCRASQYVTSSYLAWYQQKPGQAPRLLIYGSSRATGVPARFSGSGSGTDFTLTISSLEPEDFATYYCQQYSSSPITFGQGTKVEIKR
notes: Chimeric IgG: variable regions of TP-2G6 on mouse IgG1 constant regions, expressed in HKB11 cells; also called IgG-2G6; TP-2G6 after conversion to IgG
Take B3: the EC50 in assay [2] turned out to be 0.51 nM; in assay [3], 0.22 nM. Also, the entries for the “fold improvement of EC50 against 2G6-Fab” value in assay [4] and in assay [5] were 10 fold and 2 fold, respectively.

B4: TP-2A8 (Fab, V domains shown)
VH: QVQLVESGGGLVQPGGSLRLSCAASGFTFRSYGMSWVRQAPGKGLEWVSSIRGSSSSTYYADSVKGRFTISRDNSKNTLYLQMNSLRAEDTAVYYCARKYRYWFDYWGQGTLVTVSS
VL: DIELTQPPSVSVAPGQTARISCSGDNLRNYYAHWYQQKPGQAPVVVIYYDNNRPSGIPERFSGSNSGNTATLTISGTQAEDEADYYCQSWDDGVPVFGGGTKLTVLG
notes: Human Fab (HuCAL Gold, E. coli TG1); also called Fab-2A8; TP-2A8-Fab
As for B4, the binding result in assay [1] is on record as “binds”.
